Measurements from paper PMC7116876, “Mechanistic Insights into Regulation of the ALC1 Remodeler by the Nucleosome Acidic Patch” (Cell reports, 2020).
Numbering of substitutions follows the chain as printed. Numbers in names are those of the source.

B1: ALC1^fl R860W: constitutively active mutant of ALC1 (protein)
chain: FLLRLHTEGRAEAARVQEQDLRQWGLTGIHLRSYQLEGVNWLAQRFHCQNGCILGDEMGLGKTCQTIALFIYLAGRLNDEGPFLILCPLSVLSNWKEEMQRFAPGLSCVTYAGDKEERACLQQDLKQESRFHVLLTTYEICLKDASFLKSFPWSVLVVDEAHRLKNQSSLLHKTLSEFSVVFSLLLTGTPIQNSLQELYSLLSFVEPDLFSKEEVGDFIQRYQDIEKESESASELHKLLQPFLLRRVKAEVATELPKKTEVVIYHGMSALQKKYYKAILMKDLDAFENETAKKVKLQNILSQLRKCVDHPYLFDGVEPEPFEVGDHLTEASGKLHLLDKLLAFLYSGGHRVLLFSQMTQMLDILQDYMDYRGYSYERVDGSVRGEERHLAIKNFGQQPIFVFLLSTRAGGVGMNLTAADTVIFVDSDFNPQNDLQAAARAHRIGQNKSVKVIRLIGRDTVEEIVYRKAASKLQLTNMIIEGGHFTLGAQKPAADADLQLSEILKFGLDKLLASEGSTMDEIDLESILGETKDGQWVSDALPAAEGGSRDQEEGKNHMYLFEGKDYSKEPSKEDRKSFEQLVNLQKTLLEKASQEGRSLRNKGSVLIPGLVEGSTKRKRVLSPEELEDRQKKRQEAAAKRRRLIEEKKRQKEEAEHKKKMAWWESNNYQSFCLPSEESEPEDLENGEESSAELDYQDPDATSLKYVSGDVTHPQAGAEDALIVHCVDDSGHWGRGGLFTALEKRSAEPRKIYELAGKMKDLSLGGVLLFPVDDKESRNKGQDLLALIVAQHRDRSNVLSGIKMAALEEGLKKIFLAAKKKKASVHLPRIGHATKGFNWYGTERLIWKHLAARGIPTYIYYFPRSK
modifications: left off: His6, end not stated, state not stated
B2: ALC1^fl R611A/S612A/R860W: ALC1^RLS Arg anchor (R611) and adjacent residue (S612) mutated to alanines (protein)
chain: B1 chain with R596A, S597A
modifications: left off: His6, end not stated, state not stated
notes: ALC1^RLS Arg anchor (R611) and adjacent residue (S612) mutated to alanines

How the values were obtained:
[1] = system: ALC1-catalyzed remodeling of WT/WT nucleosomes; test: Ensemble FRET nucleosome remodeling, WT/WT nucleosomes; type: biochemical, Homo sapiens ALC1; Xenopus laevis histones
Text: (§1) cDNAs for ALC1 and PARP1 were of Homo sapiens origin. Histone proteins (recombinantly expressed in E. coli) were of Xenopus laevis origin. Cell lines as well as growth conditions are described in the Method Details.
(§2) Oligonucleotides used in this study were ordered from IDT (see Table S3). The ALC1^fl (16-879) construct contains the human ALC1 sequence and a 6xHis-tag, as previously published ([Lehmann et al., 2017]). All point mutations were generated by PCR-based site-directed mutagenesis. The plasmid for human PARP1 (1-1014) with an N-terminal 6xHis-tag was a kind gift from John M. Pascal ([Langelier et al., 2017]).
(§3) The DNA constructs used in the nucleosome assembly for single-molecule and ensemble remodeling studies comprised the Widom 601 nucleosome positioning sequence ([Lowary and Widom, 1998]) as well as either 3 bp or 12 bp of linker DNA on one side and 78 bp on the other side (for the single-molecule remodeling construct) or 63 bp of linker DNA on one side and no linker DNA on the other side (for the ensemble remodeling construct). […] The DNA constructs for the assembly of nucleosomes used in fluorescence anisotropy experiments and ATPase assays comprised the Widom 601 positioning sequence without additional linker DNA (for the fluorescence anisotropy construct) or 63 bp of linker DNA on one side and no linker DNA on the other side (for the ATPase assay construct). […]
Nucleosome ensemble remodeling kinetics were measured by monitoring the Cy5 (under 620 nm and 520 nm excitation) and Cy3 (under 520 nm excitation) fluorescence emission signals of a solution of FRET-labeled nucleosomes using a Spark (Tecan) or CLARIOstar (BMG Labtech) multimode microplate reader. […] Reaction kinetics were analyzed assuming a standard Michaelis-Menten mechanism.
(§4) For fluorescence anisotropy binding experiments, the reported values represent the mean ± SEM from 3 independent experiments. […] For ensemble nucleosome remodeling time courses, each experimental condition was recorded in 3 independent experiments, and representative remodeling time courses are shown. […]

[2] = system: ALC1-catalyzed remodeling of APM/APM nucleosomes; test: Ensemble FRET nucleosome remodeling, APM/APM versus WT/WT nucleosomes; type: biochemical, Homo sapiens ALC1; Xenopus laevis histones; conditions: 20 μM remodeler, 10 nM nucleosomes, 1.5 mM ATP; n = 3 independent experiments
Text: as §1, §2, §3

[3] = system: individual WT/WT nucleosomes; test: smFRET remodeling directionality, WT/WT nucleosomes; type: biochemical, Xenopus laevis histones; conditions: 2.5 μM remodeler, 1 mM ATP, n > 100 traces
Text: (§5) The DNA constructs used in the nucleosome assembly for single-molecule and ensemble remodeling studies comprised the Widom 601 nucleosome positioning sequence ([Lowary and Widom, 1998]) as well as either 3 bp or 12 bp of linker DNA on one side and 78 bp on the other side (for the single-molecule remodeling construct) or 63 bp of linker DNA on one side and no linker DNA on the other side (for the ensemble remodeling construct). All constructs were 5’-labeled with Cy5 on the short linker end. The constructs for single-molecule experiments additionally featured a biotin on the long linker end. […] The DNA constructs for the assembly of nucleosomes used in fluorescence anisotropy experiments and ATPase assays comprised the Widom 601 positioning sequence without additional linker DNA (for the fluorescence anisotropy construct) or 63 bp of linker DNA on one side and no linker DNA on the other side (for the ATPase assay construct). […]
(§6) Using the DNA constructs for single-molecule FRET described above, we first generated oriented hexasomes with H2A-Cy3 on the short linker side using a salt dialysis method as described previously ([Dyer et al., 2004]; [Levendosky et al., 2016]; [Sabantsev et al., 2019]). […] Data were analyzed using custom scripts for the Fiji distribution of ImageJ ([Schindelin et al., 2012]; [Schneider et al., 2012]), IDL, and MATLAB ([Sabantsev et al., 2019]). […]

[4] = system: individual WT/APM nucleosomes; test: smFRET remodeling directionality, WT/APM nucleosomes; type: biochemical, Xenopus laevis histones; conditions: 2.5 μM remodeler, 1 mM ATP, n > 100 traces
Text: as §5, §6

[5] = system: ALC1 ATPase with WT/WT nucleosomes; test: Nucleosome-stimulated ATPase activity; type: biochemical, Homo sapiens ALC1; Xenopus laevis histones
Protocol: (§7) ATPase activity was measured using a coupled assay that measures ADP production as described previously, ([Willhoft et al., 2016]). Final concentrations of 0.45 mM NADH, 1.0 mM phosphoenolpyruvate, 54 U/ml pyruvate kinase (Sigma), and 78 U/ml lactic dehydrogenase (Sigma) were used. For measurements of nucleosome-stimulated ATPase activity, reactions contained 20 μM ALC1,2 μM WT/WT nucleosomes, and 1 mM ATP in a volume of 30 μl. Fluorescence was monitored (excitation wavelength: 340 nm; emission wavelength: 430 nm) at 37°C using a CLARIOstar microplate reader (BMG Labtech) and black low-volume 384-well microplates (Corning). For measurements of DNA-stimulated ATPase activity, the absorbance was monitored at 340 nm for reactions containing a final of 1 μM ALC1 and either 20 μM or 50 μM 145 bp nucleosomal double-stranded (ds) DNA in 100 μl. Reaction rates were determined using mean linear slopes. For measurements of nucleosome-stimulated ATPase activity, we estimated Vmax for both ALC1^fl R860W and ALC1^fl R611A/S612A/R860W using the Michaelis-Menten equation and the Km values that we obtained from nucleosome sliding kinetics in Figure 3B.
For fluorescence anisotropy binding experiments, the reported values represent the mean ± SEM from 3 independent experiments. For ATPase activity measurements, the reported values represent the mean ± standard deviation from 3 independent experiments. For ensemble nucleosome remodeling time courses, each experimental condition was recorded in 3 independent experiments, and representative remodeling time courses are shown. Relative remodeling rates derived from these curves represent the mean ± standard deviation from 3 independent experiments. For smFRET experiments, values are reported as mean ± SEM from several experiments as specified in the corresponding figure legends. For association kinetics from live-cell imaging, error bars represent SEM from N ≥ 131 traces from 3 independent experiments.

[6] = system: ALC1 ATPase with 145 bp dsDNA; test: DNA-stimulated ATPase activity; type: biochemical, Homo sapiens ALC1; conditions: 1 μM ALC1, 20 μM or 50 μM 145 bp dsDNA, 1 mM ATP; N = 3 independent experiments
Protocol: as §7, with “For measurements of nucleosome-stimulated ATPase activity, we estimated Vmax for both ALC1^fl R860W and ALC1^fl R611A/S612A/R860W using the Michaelis-Menten equation and the Km values that we obtained from nucleosome sliding kinetics in Figure 3B.” left out
as §4

[7] = system: individual WT/WT nucleosomes with 3 bp of linker DNA; test: smFRET remodeling, pause duration; type: biochemical, Xenopus laevis histones
Text: as §5, §6

[8] = WT/WT nucleosomes 10 nM, various remodeler concentrations, Michaelis-Menten

average binding time relative to average pause duration (pause fold shorter) ([7]; remodeler concentration 20 μM) [fold]	fold reduction of ATPase rate versus ALC1^fl R860W ([5]; 20 μM ALC1, 2 μM WT/WT nucleosomes, 1 mM ATP, 37°C, n = 3 independent experiments)	Molecule	FRET change upon addition of remodeler and ATP ([1]; WT/WT end-positioned nucleosomes, saturating remodeler and ATP)	fold decrease in remodeling rate, APM/APM versus WT/WT nucleosomes [2]	fraction of single-nucleosome remodeling traces with initial decrease in FRET (toward longer linker DNA) [3] [%]	fraction of traces with opposite directionality (toward shorter linker DNA) [3] [%]	fraction of WT/APM nucleosomes moved toward the shorter linker end [4] [%]	nucleosome-stimulated ATPase activity, fold higher than DNA-stimulated ATPase activity ([5]; 20 μM ALC1 with 2 μM WT/WT nucleosomes versus 1 μM ALC1 with dsDNA, 1 mM ATP)	DNA-stimulated ATPase activity, ALC1^fl R860W versus ALC1^fl R611A/S612A/R860W [6]	fold decrease of maximum rate for remodeling versus ALC1^fl R860W [1, 8]	fold increase of Michaelis constant for remodeling versus ALC1^fl R860W [1, 8]	increase in observed pause duration on lowering remodeler concentration by a factor of 4 ([7]; remodeler concentration lowered 4-fold) [%]	fold reduction of ATPase rate versus ALC1^fl R860W, saturating conditions (Vmax) ([5]; under saturating conditions, Vmax estimated with Michaelis-Menten equation and Km values from nucleosome sliding kinetics)
–	–	B1	FRET decreased	~ 13.7 fold	62	38	89	~ 1.6 fold	essentially identical DNA-stimulated ATPase activity	–	–	–	–
2.8	~ 2.5 fold	B2	–	~ 3.2 fold	–	–	–	–	essentially identical DNA-stimulated ATPase activity	~ 6.4 fold	~ 5.3 fold	30	~ 2 fold
